Patent US20230295284A1 (MIT, published 2023)

Each binder was assayed against human plasma fibronectin (human, UniProt P02751-8 32-2296, limits assumed) (assay: Western blot, biotin-tagged nanobody).
Sequence of human plasma fibronectin (P02751 other isoform, or with tags, fused parts or gaps limits assumed): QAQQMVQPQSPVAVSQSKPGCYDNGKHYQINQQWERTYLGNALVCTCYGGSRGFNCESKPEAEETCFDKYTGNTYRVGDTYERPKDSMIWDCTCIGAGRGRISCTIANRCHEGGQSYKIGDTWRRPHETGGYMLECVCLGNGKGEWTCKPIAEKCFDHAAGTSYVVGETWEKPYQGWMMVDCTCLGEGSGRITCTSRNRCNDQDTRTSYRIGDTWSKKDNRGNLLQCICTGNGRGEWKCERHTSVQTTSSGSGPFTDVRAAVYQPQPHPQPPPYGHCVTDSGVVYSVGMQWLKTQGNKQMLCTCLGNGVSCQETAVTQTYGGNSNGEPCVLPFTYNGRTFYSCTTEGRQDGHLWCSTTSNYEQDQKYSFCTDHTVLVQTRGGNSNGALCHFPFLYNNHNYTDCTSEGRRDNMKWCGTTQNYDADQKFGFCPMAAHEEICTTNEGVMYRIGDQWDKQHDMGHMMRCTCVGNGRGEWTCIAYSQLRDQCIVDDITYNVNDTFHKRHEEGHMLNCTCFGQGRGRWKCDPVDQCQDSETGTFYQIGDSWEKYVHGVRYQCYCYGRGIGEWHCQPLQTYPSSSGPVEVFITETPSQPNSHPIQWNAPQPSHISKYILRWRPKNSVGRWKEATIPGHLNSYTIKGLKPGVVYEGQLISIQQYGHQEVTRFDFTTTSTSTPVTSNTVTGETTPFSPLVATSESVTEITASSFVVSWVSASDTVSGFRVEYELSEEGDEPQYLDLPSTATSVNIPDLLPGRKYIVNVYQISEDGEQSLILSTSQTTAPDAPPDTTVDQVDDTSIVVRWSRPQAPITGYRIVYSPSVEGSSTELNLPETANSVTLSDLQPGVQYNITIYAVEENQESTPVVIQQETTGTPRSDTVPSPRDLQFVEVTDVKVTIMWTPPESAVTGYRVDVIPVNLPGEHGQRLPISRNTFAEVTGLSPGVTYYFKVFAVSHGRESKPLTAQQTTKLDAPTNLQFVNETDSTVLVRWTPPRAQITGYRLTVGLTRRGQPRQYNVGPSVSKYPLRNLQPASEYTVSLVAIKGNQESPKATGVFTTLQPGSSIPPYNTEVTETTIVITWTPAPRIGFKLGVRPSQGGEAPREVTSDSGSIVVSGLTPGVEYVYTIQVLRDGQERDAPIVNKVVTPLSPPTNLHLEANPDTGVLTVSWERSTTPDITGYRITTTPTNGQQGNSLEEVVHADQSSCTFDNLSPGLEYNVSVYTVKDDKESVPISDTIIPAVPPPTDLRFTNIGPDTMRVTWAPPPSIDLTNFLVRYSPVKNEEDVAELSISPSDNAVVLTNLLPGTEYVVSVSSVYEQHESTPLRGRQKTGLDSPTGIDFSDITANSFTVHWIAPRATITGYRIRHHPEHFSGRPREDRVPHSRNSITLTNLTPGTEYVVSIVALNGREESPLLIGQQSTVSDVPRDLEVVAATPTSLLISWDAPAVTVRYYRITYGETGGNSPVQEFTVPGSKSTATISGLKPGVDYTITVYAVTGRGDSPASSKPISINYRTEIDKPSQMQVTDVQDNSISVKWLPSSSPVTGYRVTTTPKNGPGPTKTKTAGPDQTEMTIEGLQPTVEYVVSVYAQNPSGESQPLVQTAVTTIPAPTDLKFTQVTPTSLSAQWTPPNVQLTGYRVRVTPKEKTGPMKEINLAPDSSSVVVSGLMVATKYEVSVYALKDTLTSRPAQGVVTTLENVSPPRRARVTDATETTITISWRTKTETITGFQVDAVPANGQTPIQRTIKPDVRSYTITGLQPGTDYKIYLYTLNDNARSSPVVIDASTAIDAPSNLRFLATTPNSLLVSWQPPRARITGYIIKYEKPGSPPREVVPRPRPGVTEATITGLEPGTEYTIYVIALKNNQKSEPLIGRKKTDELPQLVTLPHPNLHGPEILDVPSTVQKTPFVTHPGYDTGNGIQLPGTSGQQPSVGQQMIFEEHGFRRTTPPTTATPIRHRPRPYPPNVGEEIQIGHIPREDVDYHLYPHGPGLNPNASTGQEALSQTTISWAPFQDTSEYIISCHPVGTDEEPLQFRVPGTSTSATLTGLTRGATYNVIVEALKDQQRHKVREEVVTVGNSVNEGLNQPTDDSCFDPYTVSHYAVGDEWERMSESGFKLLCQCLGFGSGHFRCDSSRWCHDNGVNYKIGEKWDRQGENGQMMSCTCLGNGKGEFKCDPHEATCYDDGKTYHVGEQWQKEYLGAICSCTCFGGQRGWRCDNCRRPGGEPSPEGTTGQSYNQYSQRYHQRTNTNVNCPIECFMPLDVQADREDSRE

| binding result | Binder |
| --- | --- |
| no binding | LMJ1.2C (VHH, sortase-tagged with biotin in the Western blots ; Purified by a his-tag for BLI and sortase-tagged with biotin in the Western blots. The tag letters are not stated for the free nanobody, so they are left out., First round of yeast display; Expressed in E. coli, his-tag purified) VHH: QVQLVETGGGLVQAGGSLRLSCAASGSTFSHSAGGWYRQAPEKQRELVAGIRSDGNINYADSVKDRFTISRDNASNTMYLQMNNLKPEDTAVYVCNIRGSYGNTYYSRWGQGTQVTVSS |
| no binding | LMJ2.5H (VHH, sortase-tagged with biotin in the Western blots ; Western blots used the nanobody sortase-tagged with biotin at a terminus. The BLI material was his-tag purified. Tag letters are not stated for the stand-alone nanobody and are left out., Second round of yeast display; Expressed in E. coli, his-tag purified) VHH: QVQLVETGGGLVQAGGSLRLSCAVSGSTFSHSAGGWYRQAPEKQRELVAGIRSDGNINYADSVKDRFTISRDNASNTMYLQMNNLKPEDTAVYVCNIRGSYGNTYYSRWGQGTQVTVSS |
| no binding | LMJ2.5J (VHH, sortase-tagged with biotin in the Western blots ; Western blots used the nanobody sortase-tagged with biotin at a terminus. The BLI material was his-tag purified. Tag letters are not stated for the stand-alone nanobody and are left out., Second round of yeast display; Expressed in E. coli, his-tag purified) VHH: QVQLVETRGGLVQAGGSLRLSCAVSGSTFSHSAGGWYRQAPEKQRELVAGIGSAGNINYADSVKDRFTISRDNASNTMYLQMNNLKPEDTAVYVCNIRGSYGNTYYSRWGQGTQVTVSS |
| no binding | LMJ2.5C (VHH, sortase-tagged with biotin in the Western blots ; Purified by a his-tag for BLI and sortase-tagged with biotin in the Western blots. The tag letters are not stated for the free nanobody, so they are left out., Second round of yeast display; Expressed in E. coli, his-tag purified) VHH: QVQLVETGGGLVQAGGSLRLSCAASGSTFSHSAGGWYRQAPEKQRELVAGVRSDGNINYADSVKDRFTISRDNASNTMYLQMNNLKPEDTAVYVCNIRGSYGNTYYSRWGQGIQVTVSS |
| no binding | LMJ2.5G (VHH, sortase-tagged with biotin in the Western blots ; Western blots used the nanobody sortase-tagged with biotin at a terminus. The BLI material was his-tag purified. Tag letters are not stated for the stand-alone nanobody and are left out., Second round of yeast display; Expressed in E. coli, his-tag purified) VHH: QVQLVETEGGLVQAGGSLRLSCAASGSTFSHSAGGWYRQAPEKQRELVAGIRSDGNINYADSVKDRFTISRDNASNTMYLQMNNLKPEDTAVYVCNIRGSYGNTYYSRWGQGTQVTVSS |
| no binding | LMJ1.3J (VHH, sortase-tagged with biotin in the Western blots ; Purified by a his-tag for BLI and sortase-tagged with biotin in the Western blots. The tag letters are not stated for the free nanobody, so they are left out., First round of yeast display; Expressed in E. coli, his-tag purified) VHH: QVQLVGTGGGLVQAGGSLRLSCAASGSTFSHSAGGWYRQAPEKQRELVAGISSAGNINYADSVKDRFTISRDNASNTMYLQMNNLKPEDTAVYVCNIRGSYGNTYYSRWGQGTQVTVSS |
| no binding | LMJ1.2G (VHH, sortase-tagged with biotin in the Western blots ; Purified by a his-tag for BLI and sortase-tagged with biotin in the Western blots. The tag letters are not stated for the free nanobody, so they are left out., First round of yeast display; Expressed in E. coli, his-tag purified) VHH: QVQLVETGGGLVQAGGSLRLSCAASGSTFSHSAGGWYRQAPEKQRELVAGIGSDGNINYADSVKDRFTISRDNASNTMYLQMNNLKPEDTAVYVCNIRGSYGNTYYSRWGQGTQVTVSS |
| no binding | LMJ2.6A (VHH, sortase-tagged with biotin in the Western blots ; Purified by a his-tag for BLI and sortase-tagged with biotin in the Western blots. The tag letters are not stated for the free nanobody, so they are left out., Second round of yeast display; Expressed in E. coli, his-tag purified) VHH: RVQLVETGGGLVQAGGSLRLSCAVSGRTFSHSAGGWYRQAPEKQRELVAGIRSDGNINYADSVKDRFTISRDNASNTMYLQMNNLKPGDTAVYVCNIRGSYGNTYYSRWGQGTQVTVSS |
| no binding | LMJ2.5I (VHH, sortase-tagged with biotin in the Western blots ; Purified by a his-tag for BLI and sortase-tagged with biotin in the Western blots. The tag letters are not stated for the free nanobody, so they are left out., Second round of yeast display; Expressed in E. coli, his-tag purified) VHH: RVQLVETGGGLVQAGGSLRLSCAVSGSTFSHSAGGWYRQAPEKQRELVAGIRSDGNINYADSVKDRFTISRDNASNTMYLQMNNLKPEDTAVYVCNIRGSYGNTYYSRWGQGAQVTVSS |
| no binding | LMJ2.4C (VHH, sortase-tagged with biotin in the Western blots ; Purified by a his-tag for BLI and sortase-tagged with biotin in the Western blots. The tag letters are not stated for the free nanobody, so they are left out., Second round of yeast display; Expressed in E. coli, his-tag purified) VHH: QVQLVEAGGGLVQAGGSLRLSCAASGSTFSHSAGGWYRQAPEKQRELVAGIRSDGNINYADSVKDRFTISRDNASNTMYLQMNNLKPEDTAVYVCNIRGSYGNTYYSRWGQGIQVTVSS |
